Measured values from patent publication US20250186597A1, “TARGETED IMMUNE ACTIVATION WITH IL-18 IMMUNOCYTOKINES” (BRIGHT PEAK THERAPEUTICS AG, priority 2023, published 2025).

T1: human IL-18BP (Homo sapiens, UniProt O95998)
T1 construct: His
T1 sequence (O95998 31-194): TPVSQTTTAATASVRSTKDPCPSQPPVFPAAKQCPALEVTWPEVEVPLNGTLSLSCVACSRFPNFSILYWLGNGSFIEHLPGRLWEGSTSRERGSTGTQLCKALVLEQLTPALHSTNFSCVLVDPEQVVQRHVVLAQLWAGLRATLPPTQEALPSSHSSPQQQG


What was measured:
NK-92 cells [1] = assay: IFNγ induction cellular assay in NK-92 cells (Example 4, used in Example 22C); assay type: cell-based, human; details: IFNg stimulation in NK92 cells
Protocol: The ability of immunocytokines and IL-18 polypeptides provided herein are assessed for ability to induce IFN[…] in a cellular assay according to the protocol below.
The NK cell line NK-92 derived from a patient with lymphoma (ATCC® CRL-2407™) is cultured in aMEM medium supplemented with 20% FCS, Glutamax, 25 µM B-mercaptoethanol, and 100 IU/mL of recombinant human IL-2.
On the day of experiment, cells are harvested and washed with aMEM medium without IL-2 and containing 1 ng/mL of recombinant human IL-12. After counting, cells are seeded at 100,000 cells/well in a 384 well titer plate and incubated at 37° C./5% CO2. Sixteen 4-fold serial dilutions of IL-18 analytes are prepared in aMEM medium, and 1 ng/mL of IL-12 were added to the NK-92 cells. Final IL-18 analyte concentrations range from 56 nM to 5×10^−5 pM.
After incubating the cells for 16-20 hr at 37° C./5% CO2, 5 μL of supernatant is carefully transferred to a 384 microwell OptiPlate. IFNγ levels are measured using a human IFNγ AlphaLISA Assay Kit. Briefly, 10 μL of 2.5× AlphaLISA Anti-IFNγ acceptor beads and biotinylated antibody anti-IFNγ mix are added to the 5 μL of NK-92 supernatants. The mixtures are incubated for 1 hr at room temperature with shaking. Under subdued light, 2.5 μL of 2× streptavidin (SA) donor beads are pipetted into each well, and the wells are incubated for 30 min at room temperature with shaking. AlphaLISA signals are then measured on an EnSpire™ plate reader using 680 nm and 615 nm as excitation and emission wavelengths, respectively. Half maximal effective concentrations (EC50) are calculated based on a variable slope and four parameter analysis using GraphPad PRISM software.
(§1) The experiments described in Example 4 for determination of IFNg stimulation in NK92 cells (and inhibition by IL-18 BP) were performed substantially as described on IL-18 polypeptides in order to assess their activities and their suitability for incorporation into immunocytokine compositions. It is expected that the IL-18 polypeptides provided below would behave analagously to C086 (SEQ ID NO: 30) when incorporated into an immunocytokine composition as those otherwise provided herein.

human IL-18BP = target: T1, human IL-18BP; assay: IL-18BP binding alphaLISA assay (Example 4, used in Example 22B); details: IL-18BP AlphaLISA
Protocol: A human IL-18BP AlphaLISA Assay Kit is used to determine the binding affinity of each immunocytokine and IL-18 variant for IL-18BP, which detected the presence of free form IL-18BP.
Sixteen three-fold serial dilutions of IL-18 analytes are prepared in aMEM medium supplemented with 20% FCS, Glutamax, and 25 µM β-mercaptoethanol in the presence of 5 ng/mL of His-tagged human IL-18BP. Final IL-18 analytes concentration range from 2778 nM to […].
After 1 hr incubation at room temperature, free IL-18BP levels are measured using a […]. In a 384 well OPTIplate, 5 μL of 5× Anti-IL-18BP acceptor beads are added to 7.5 μL of an IL-18/IL-18BP mix. After 30 min incubation at room temperature with shaking, 5 μL of biotinylated Anti-IL-18BP antibodies are added to each well. The plate is incubated further for 1 hr at room temperature. Under subdued light, 12.5 μL of 2× streptavidin (SA) donor beads are pipetted into each well, and the wells are incubated with shaking for an additional 30 min at room temperature. The AlphaLisa signal is then measured on an Enspire plate reader with 680 and 615 nm as excitation and emission wavelengths, respectively. The dissociation constant (KD) is calculated based on a variable slope, four parameter analysis using GraphPad PRISM software.
An IL-18 binding protein AiphaLISA experiment substantially as described in Example 4 was performed on IL-18 polypeptide which can be incorporated into immunocytokine compositions as provided herein to assess ability to bind to IL-181BP. It is expected that the IL-18 polypeptides provided below would behave analogously to C086 (SEQ ID NO: 30) when incorporated into an immunocytokine composition as those otherwise provided herein.

NK-92 cells [2] = assay: IL-18 binding protein inhibition cellular assay in NK-92 cells (Example 4, used in Example 22C); assay type: cell-based, human; details: inhibition by IL-18BP of IFNg stimulation in NK92 cells
Protocol: The NK cell line NK-92 derived from a patient with lymphoma (ATCC® CRL-2407™) is cultured in aMEM medium supplemented with 20% FCS-Glutamax, 25 µM B-mercaptoethanol, and 100 IU/mL of recombinant human IL-2.
On the day of experiment, cells are harvested and washed with aMEM medium without IL-2 and containing 1 ng/mL of recombinant human IL-12. After counting, the cells are seeded at 100,000 cells/well in a 384 well titer plate and incubated at 37° C./5% CO2. Sixteen 2-fold serial dilutions of Fc-fused human IL-18 binding protein isoform a (IL-18BPa) are prepared in aMEM medium. 1 ng/mL of IL-12 containing 2 nM of each IL-18 polypeptide variant is added to the NK-92 cells. The final IL-18 analyte concentration is 1 nM, and the final IL-18BPa concentration ranged from 566 nM to […].
After incubating the cells for 16-20 hr at 37° C./5% CO2, 5 μL of the supernatant is carefully transferred to a 384 microwell OptiPlate. IFNγ levels are measured using a human IFNγ AlphaLISA Assay Kit. Briefly, 10 μL of 2.5× AlphaLISA anti-IFNγ acceptor beads and biotinylated antibody anti-IFNγ mix are added to 5 μL of NK-92 supernatants. The mixtures are incubated for 1 hr at room temperature with shaking. Under subdued light, 2.5 μL of 2×SA donor beads are pipetted in each well and incubated for 30 min at room temperature with shaking. AlphaLISA signals are then measured on an EnSpire™ plate reader using 680 nm and 615 nm as excitation and emission wavelengths, respectively. Half maximal inhibitory concentrations (IC50) are calculated based on a variable slope and four parameter analysis using GraphPad PRISM software.
as §1

| EC50 (NK-92 cells [1]) [nM] | Kd (human IL-18BP) [nM] | IC50 (NK-92 cells [2]) [nM] | Molecule |
| --- | --- | --- | --- |
| 0.062 | 2.12 | 3.71 | C154: IL-18 polypeptide: V11I, E31A, D37A, C38A, K53A, C76A, C127A (protein) YFGKLESKLSIIRNLNDQVLFIDQGNRPLFADMTDSAARDNAPRTIFIISMYADSQPRGMAVTISVKCEKISTLSAENKIISFKEMNPPDNIKDTKSDIIFFQRSVPGHDNKMQFESSSYEGYFLAAEKERDLFKLILKKEDELGDRSIMFTVQNED |
| 0.824 | > 1500 | 229 | 34 (protein) YFGKLKSKLSVIRNLNDQVLFIDQGNRPLFEDMTDSDCRDNAPRTIFIISMYADAQPRGMAVTISVKCEKISTLSCENKIISFKEMNPPDNIKDTKSDIIFFQRSVPGHDNKMQFESSSYEGYFLACEKERDLFKLILKKEDELGDRSIMFTVQNED |
| 0.067 | 0.74 | 3.23 | C155: IL-18 polypeptide: V11I, C38A, D40A, K53A, C76A, C127A (protein) YFGKLESKLSIIRNLNDQVLFIDQGNRPLFEDMTDSDARANAPRTIFIISMYADSQPRGMAVTISVKCEKISTLSAENKIISFKEMNPPDNIKDTKSDIIFFQRSVPGHDNKMQFESSSYEGYFLAAEKERDLFKLILKKEDELGDRSIMFTVQNED |
| 0.028 | 0.71 | 3.18 | C160: IL-18 polypeptide: V11I, C38A, K53A, C76A, D110A, C127A (protein) YFGKLESKLSIIRNLNDQVLFIDQGNRPLFEDMTDSDARDNAPRTIFIISMYADSQPRGMAVTISVKCEKISTLSAENKIISFKEMNPPDNIKDTKSDIIFFQRSVPGHANKMQFESSSYEGYFLAAEKERDLFKLILKKEDELGDRSIMFTVQNED |
| 0.414 | 0.08 | 0.456 | C164: IL-18 polypeptide: V11I, C38A, S55H, C76A, C127A (protein) YFGKLESKLSIIRNLNDQVLFIDQGNRPLFEDMTDSDARDNAPRTIFIISMYKDHQPRGMAVTISVKCEKISTLSAENKIISFKEMNPPDNIKDTKSDIIFFQRSVPGHDNKMQFESSSYEGYFLAAEKERDLFKLILKKEDELGDRSIMFTVQNED |
| 0.073 | 1.24 | 3.98 | C158: IL-18 polypeptide: V11I, C38A, K53A, C76A, G108A, C127A (protein) YFGKLESKLSIIRNLNDQVLFIDQGNRPLFEDMTDSDARDNAPRTIFIISMYADSQPRGMAVTISVKCEKISTLSAENKIISFKEMNPPDNIKDTKSDIIFFQRSVPAHDNKMQFESSSYEGYFLAAEKERDLFKLILKKEDELGDRSIMFTVQNED |
| 0.093 | 0.05 | 0.823 | C163: IL-18 polypeptide: V11I, C38A, C76A, Q103K, C127A (protein) YFGKLESKLSIIRNLNDQVLFIDQGNRPLFEDMTDSDARDNAPRTIFIISMYKDSQPRGMAVTISVKCEKISTLSAENKIISFKEMNPPDNIKDTKSDIIFFKRSVPGHDNKMQFESSSYEGYFLAAEKERDLFKLILKKEDELGDRSIMFTVQNED |
| 0.123 | 0.55 | 1.81 | C159: IL-18 polypeptide: V11I, C38A, K53A, C76A, H109A, C127A (protein) YFGKLESKLSIIRNLNDQVLFIDQGNRPLFEDMTDSDARDNAPRTIFIISMYADSQPRGMAVTISVKCEKISTLSAENKIISFKEMNPPDNIKDTKSDIIFFQRSVPGADNKMQFESSSYEGYFLAAEKERDLFKLILKKEDELGDRSIMFTVQNED |
| 0.057 | 0.06 | 1.07 | C161: IL-18 polypeptide: K8R, V11I, C38A, C76A, Q103E, C127A (protein) YFGKLESRLSIIRNLNDQVLFIDQGNRPLFEDMTDSDARDNAPRTIFIISMYKDSQPRGMAVTISVKCEKISTLSAENKIISFKEMNPPDNIKDTKSDIIFFERSVPGHDNKMQFESSSYEGYFLAAEKERDLFKLILKKEDELGDRSIMFTVQNED |
| 0.061 | 0.85 | 7.29 | C162: IL-18 polypeptide: K8E, V11I, C38A, C76A, Q103R, C127A (protein) YFGKLESELSIIRNLNDQVLFIDQGNRPLFEDMTDSDARDNAPRTIFIISMYKDSQPRGMAVTISVKCEKISTLSAENKIISFKEMNPPDNIKDTKSDIIFFRRSVPGHDNKMQFESSSYEGYFLAAEKERDLFKLILKKEDELGDRSIMFTVQNED |
| 0.558 | 18.5 | 0.681 | C156: IL-18 polypeptide: V11I, C38A, N41A, K53A, C76A, C127A (protein) YFGKLESKLSIIRNLNDQVLFIDQGNRPLFEDMTDSDARDAAPRTIFIISMYADSQPRGMAVTISVKCEKISTLSAENKIISFKEMNPPDNIKDTKSDIIFFQRSVPGHDNKMQFESSSYEGYFLAAEKERDLFKLILKKEDELGDRSIMFTVQNED |
| 0.056 | 13.7 | 6.08 | C157: IL-18 polypeptide: V11I, C38A, K53A, C76A, C127A, D132A (protein) YFGKLESKLSIIRNLNDQVLFIDQGNRPLFEDMTDSDARDNAPRTIFIISMYADSQPRGMAVTISVKCEKISTLSAENKIISFKEMNPPDNIKDTKSDIIFFQRSVPGHDNKMQFESSSYEGYFLAAEKERALFKLILKKEDELGDRSIMFTVQNED |
